Data taken from PMC5868845.

Target: 4F2hc (UniProt P08195)
Test: co-IP from transfected 293FT, western blot
Details: reference: Flag-NT wild type

| binding against the reference (sites S233) | binding against the reference (sites S237) | Substance |
| --- | --- | --- |
| lost |  | Girdin NT domain, 1-256 (from UniProt Q3V6T2) Flag-NT S233A |
|  | lost | Girdin NT domain, 1-256 (from UniProt Q3V6T2) Flag-NT S237A |
